Earlier results on 2 substances are cited in article PMC7585440.

For one data set, the target named is LRP6 E1E2 (Homo sapiens) (UniProt O75581). As to the kind of experiment: biolayer interferometry.
The target of the next data set is LRP6 E1 (Homo sapiens) (UniProt O75581). The data set is described as follows: ITC.
Sequence of LRP6 E1 (Homo sapiens) (O75581 20-326): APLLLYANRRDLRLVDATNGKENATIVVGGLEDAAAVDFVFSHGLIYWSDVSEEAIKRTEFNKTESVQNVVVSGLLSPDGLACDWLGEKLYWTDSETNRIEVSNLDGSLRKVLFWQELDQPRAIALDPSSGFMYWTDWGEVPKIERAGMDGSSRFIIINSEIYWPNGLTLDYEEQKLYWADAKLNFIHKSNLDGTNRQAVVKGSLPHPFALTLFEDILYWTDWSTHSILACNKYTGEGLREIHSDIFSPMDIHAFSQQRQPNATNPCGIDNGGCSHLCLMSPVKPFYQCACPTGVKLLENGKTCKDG

Sequence of LRP6 E1E2 (Homo sapiens) (O75581 20-630): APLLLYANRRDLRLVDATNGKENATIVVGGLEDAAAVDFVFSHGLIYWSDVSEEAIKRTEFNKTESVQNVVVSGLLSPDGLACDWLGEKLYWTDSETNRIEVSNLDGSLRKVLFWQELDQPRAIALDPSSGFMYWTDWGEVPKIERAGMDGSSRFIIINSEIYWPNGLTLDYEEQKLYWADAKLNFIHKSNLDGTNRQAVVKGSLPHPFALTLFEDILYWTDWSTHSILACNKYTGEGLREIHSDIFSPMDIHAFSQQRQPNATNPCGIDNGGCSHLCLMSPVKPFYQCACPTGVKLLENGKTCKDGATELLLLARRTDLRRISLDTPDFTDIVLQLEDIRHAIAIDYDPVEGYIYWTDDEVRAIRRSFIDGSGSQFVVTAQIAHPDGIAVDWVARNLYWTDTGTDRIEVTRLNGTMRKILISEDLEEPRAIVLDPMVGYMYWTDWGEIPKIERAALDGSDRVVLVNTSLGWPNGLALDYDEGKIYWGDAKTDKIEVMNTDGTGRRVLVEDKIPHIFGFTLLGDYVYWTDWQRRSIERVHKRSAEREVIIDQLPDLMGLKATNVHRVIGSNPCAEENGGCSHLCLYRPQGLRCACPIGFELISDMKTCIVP
Sequence of SOST loop 2 peptide loop 2 (Q9BQB4 110-130): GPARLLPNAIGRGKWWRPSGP
Sequence of SOST (Q9BQB4 24-213): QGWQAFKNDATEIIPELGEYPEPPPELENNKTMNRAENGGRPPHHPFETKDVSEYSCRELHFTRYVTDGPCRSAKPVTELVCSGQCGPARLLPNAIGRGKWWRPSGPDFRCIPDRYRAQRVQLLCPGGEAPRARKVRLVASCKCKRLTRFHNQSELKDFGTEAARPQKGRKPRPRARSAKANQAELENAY

On to SOST (from UniProt Q9BQB4), for which the Kd with LRP6 E1E2 (Homo sapiens) is 0.0068 µM.

“SOST loop 2 peptide loop 2 (from UniProt Q9BQB4)”: the Kd with LRP6 E1 (Homo sapiens) was 9 µM.
